Source: publication PMC7660914 (Microbiology, 2020)

B1: recombinant human galectin-4 (natural protein, UniProt P56470 1-323, looked up)
chain: MAYVPAPGYQPTYNPTLPYYQPIPGGLNVGMSVYIQGVASEHMKRFFVNFVVGQDPGSDVAFHFNPRFDGWDKVVFNTLQGGKWGSEERKRSMPFKKGAAFELVFIVLAEHYKVVVNGNPFYEYGHRLPLQMVTHLQVDGDLQLQSINFIGGQPLRPQGPPMMPPYPGPGHCHQQLNSLPTMEGPPTFNPPVPYFGRLQGGLTARRTIIIKGYVPPTGKSFAINFKVGSSGDIALHINPRMGNGTVVRNSLLNGSWGSEEKKITHNPFGPGQFFDLSIRCGLDRFKVYANGQHLFDFAHRLSAFQRVDTLEIQGDVTLSYVQI
notes: also called GAL4
B2: H6 flagella (polymeric FliC flagellin) of E. coli O127:H6 (natural protein)
chain: MAQVINTNSLSLITQNNINKNQSALSSSIERLSSGLRINSAKDDAAGQAIANRFTSNIKGLTQAARNANDGISVAQTTEGALSEINNNLQRIRELTVQASTGTNSDSDLDSIQDEIKSRLDEIDRVSGQTQFNGVNVLAKDGSMKIQVGANDGQTITIDLKKIDSDTLGLNGFNVNGKGETANTAATLKDMSGFTAAAAPGGTVGVTQYTDKSAVASSVDILNAVAGADGNKVTTSADVGFGTPAAAVTYTYNKDTNSYSAASDDISSANLAAFLNPQARDTTKATVTIGGKDQDVNIDKSGNLTAADDGAVLYMDATGNLTKNNAGGDTQATLAKVATATGAKAATIQTDKGTFTSDGTAFDGASMSIDANTFANAVKNDTYTATVGAKTYSVTTGSAAADTAYMSNGVLSDTPPTYYAQADGSITTTEDAAAGKLVYKGSDGKLTTDTTSKAESTSDPLAALDDAISQIDKFRSSLGAVQNRLDSAVTNLNNTTTNLSEAQSRIQDADYATEVSNMSKAQIIQQAGNSVLAKANQVPQQVLSLLQG

Legend:
[1] = target: B2; experiment: ELISA; conditions: both partners purified
[2] = target: the molecule itself; experiment: SEC

B1
binding result [1]: binds

B2
binding result [2]: binds
